Data published in the supplement of paper PMC9233669.
This sample holds only a part of the variants without activity.

Assays:
biotinyl-Phe-oxazolone = experiment: self-aminoacylation, catalytic enhancement (BFO) (fold over background); higher = more active; k-Seq, kA / k0A0; sequences stand for … in GGGAAUGGAUCCACAUCUACGAAUUC…UUCACUGCAGACUUGACGAAGCUG
Procedure, shortened: (§1)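 Working in 50 μL HEPES/NaCl/KCl/MgCl2/CaCl2 buffer with 5% acetonitrile at pH 6.9–7.0, mutagenized RNA pools (0.43 μM; 21-nt variable region) were reacted with 2–1250 μM of each biotinyl-aminoacyl-oxazolone for 90 minutes at room temperature. Streptavidin capture followed, with quantification by triplicate qPCR and Illumina sequencing. Catalytic enhancement is reported as median kA over the uncatalyzed rate, the low-activity peak of a bimodal Gaussian fit to the data.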

biotinyl-Ile-oxazolone = experiment: self-aminoacylation, catalytic enhancement (BIO) (fold over background); higher = more active; k-Seq, kA / k0A0; sequences stand for … in GGGAAUGGAUCCACAUCUACGAAUUC…UUCACUGCAGACUUGACGAAGCUG
Procedure, shortened: as §1

biotinyl-Met-oxazolone = experiment: self-aminoacylation, catalytic enhancement (BMO) (fold over background); higher = more active; k-Seq, kA / k0A0; sequences stand for … in GGGAAUGGAUCCACAUCUACGAAUUC…UUCACUGCAGACUUGACGAAGCUG
Procedure, shortened: as §1

biotinyl-Val-oxazolone = experiment: self-aminoacylation, catalytic enhancement (BVO) (fold over background); higher = more active; k-Seq, kA / k0A0; sequences stand for … in GGGAAUGGAUCCACAUCUACGAAUUC…UUCACUGCAGACUUGACGAAGCUG
Procedure, shortened: as §1

biotinyl-Leu-oxazolone = experiment: self-aminoacylation, catalytic enhancement (BLO) (fold over background); higher = more active; k-Seq, kA / k0A0; sequences stand for … in GGGAAUGGAUCCACAUCUACGAAUUC…UUCACUGCAGACUUGACGAAGCUG
Procedure, shortened: as §1

biotinyl-Trp-oxazolone = experiment: self-aminoacylation, catalytic enhancement (BWO) (fold over background); higher = more active; k-Seq, kA / k0A0; sequences stand for … in GGGAAUGGAUCCACAUCUACGAAUUC…UUCACUGCAGACUUGACGAAGCUG
Procedure, shortened: as §1

Row | Sequence | self-aminoacylation (biotinyl-Phe-oxazolone) | self-aminoacylation (biotinyl-Ile-oxazolone) | self-aminoacylation (biotinyl-Met-oxazolone) | self-aminoacylation (biotinyl-Val-oxazolone) | self-aminoacylation (biotinyl-Leu-oxazolone) | self-aminoacylation (biotinyl-Trp-oxazolone)
1 | CUACUUCAACCAAUCGAUCUG [Fam1A.1 aminoacylation ribozyme variant] | 1.98 | 0.763 | 0.62 | 0.665 | 0.598 | 1.04
2 | CUACUUCAACCAAUCGCUCUG [Fam1A.1 aminoacylation ribozyme variant] | 1.4 | 0.872 | 0.806 | 0.729 | 0.843 | 1.43
3 | CUACUUCAACCAAUCGGUCUG [Fam1A.1 aminoacylation ribozyme variant] | 33.1 | 0.988 | 1.07 | 1.04 | 1.48 | 18.7
4 | CUACUUCAACCAAUCUGUCUG [Fam1A.1 aminoacylation ribozyme variant] | 2.12 | 0.597 | 0.504 | 0.592 | 0.485 | 0.777
5 | CUACUUCAACCAGUCGGUCUG [Fam1A.1 aminoacylation ribozyme variant] | 0.542 | 0.712 | 0.662 | 0.833 | 0.788 | 0.564
6 | CUACUUCAAGCAAGCGGUCUG [Fam1A.1 aminoacylation ribozyme variant] | 0.897 | 1.12 | 0.867 | 0.854 | 0.958 | 0.849
7 | CUACUUCAAGCAAUCCGUCUG [Fam1A.1 aminoacylation ribozyme variant] | 1.86 | 1 | 0.833 | 1.17 | 0.941 | 1.25
8 | CUACUUCAAGCAAUCGGACUG [Fam1A.1 aminoacylation ribozyme variant] | 4.71 | 0.86 | 0.714 | 0.861 | 1.04 | 2.58
9 | CUACUUCAAGCAAUCGGCCUG [Fam1A.1 aminoacylation ribozyme variant] | 18.9 | 1.85 | 1.74 | 1.6 | 2.44 | 16.4
10 | CUACUUCAAGCAAUGGGUCUG [Fam1A.1 aminoacylation ribozyme variant] | 0.863 | 1.02 | 0.934 | 0.998 | 0.852 | 1.09
11 | CUACUUCAAUCAAUCCGUCUG [Fam1A.1 aminoacylation ribozyme variant] | 0.657 | 0.758 | 0.664 | 0.672 | 0.694 | 0.695
12 | CUACUUCAAUCAAUCGGGCUG [Fam1A.1 aminoacylation ribozyme variant] | 8.36 | 1.41 | 1.31 | 1.24 | 1.38 | 7.13
13 | CUACUUCAAUCAAUCGGUAUG [Fam1A.1 aminoacylation ribozyme variant] | 10.8 | 0.797 | 0.961 | 0.848 | 0.88 | 6.33
14 | CUACUUCAAUCAAUCGUUCUG [Fam1A.1 aminoacylation ribozyme variant] | 0.629 | 0.491 | 0.379 | 0.596 | 0.472 | 0.428
15 | CUACUUCAAUCCAUCGGUCUG [Fam1A.1 aminoacylation ribozyme variant] | 0.866 | 0.857 | 0.738 | 0.821 | 0.737 | 0.728
16 | CUACUUCACACAAACGGUCUG [Fam1A.1 aminoacylation ribozyme variant] | 1.07 | 0.771 | 0.626 | 0.746 | 0.746 | 0.616
17 | CUACUUCACACAAUAGGUCUG [Fam1A.1 aminoacylation ribozyme variant] | 1.01 | 0.6 | 0.474 | 0.605 | 0.469 | 0.394
18 | CUACUUCACACAAUCCGUCUG [Fam1A.1 aminoacylation ribozyme variant] | 0.747 | 0.859 | 0.913 | 0.854 | 0.81 | 0.495
19 | CUACUUCACACAAUCGGACUG [Fam1A.1 aminoacylation ribozyme variant] | 0.755 | 0.882 | 0.609 | 0.736 | 0.673 | 0.442
20 | CUACUUCACACAAUCGGUGUG [Fam1A.1 aminoacylation ribozyme variant] | 0.67 | 1.07 | 1.65 | 1.25 | 1.22 | 0.513
21 | CUACUUCACACAUUCGGUCUG [Fam1A.1 aminoacylation ribozyme variant] | 1.72 | 1.16 | 1.13 | 1.1 | 1.36 | 1.69
22 | CUACUUCAGACAACCGGUCUG [Fam1A.1 aminoacylation ribozyme variant] | 0.886 | 0.968 | 1.22 | 1.28 | 1.03 | 0.969
23 | CUACUUCAGACAAUCGGUAUG [Fam1A.1 aminoacylation ribozyme variant] | 0.586 | 0.719 | 0.636 | 0.704 | 0.717 | 0.529
24 | CUACUUCAGACAAUCGGUCAG [Fam1A.1 aminoacylation ribozyme variant] | 1.26 | 0.805 | 0.73 | 0.83 | 0.872 | 0.771
25 | CUACUUCAGACUAUCGGUCUG [Fam1A.1 aminoacylation ribozyme variant] | 0.949 | 0.816 | 0.734 | 0.943 | 0.832 | 0.939
26 | CUACUUCAUACAAUCGGACUG [Fam1A.1 aminoacylation ribozyme variant] | 0.573 | 0.751 | 0.418 | 0.676 | 0.609 | 0.387

Row | Sequence | self-aminoacylation (biotinyl-Phe-oxazolone) | self-aminoacylation (biotinyl-Ile-oxazolone) | self-aminoacylation (biotinyl-Met-oxazolone) | self-aminoacylation (biotinyl-Val-oxazolone) | self-aminoacylation (biotinyl-Leu-oxazolone) | self-aminoacylation (biotinyl-Trp-oxazolone)
27 | CUACUUCAUACAAUCGGUAUG [Fam1A.1 aminoacylation ribozyme variant] | 0.628 | 0.431 | 0.508 | 0.731 | 0.468 | 0.34
28 | CUACUUCAUACAAUCGGUCUA [Fam1A.1 aminoacylation ribozyme variant] | 0.751 | 0.835 | 0.926 | 0.703 | 0.68 | 0.555
29 | CUACUUCAUACAAUCGGUCUG [Fam1A.1 aminoacylation ribozyme variant] | 0.808 | 0.707 | 0.668 | 0.743 | 0.643 | 0.553
30 | CUACUUCAUACGAUCGGUCUG [Fam1A.1 aminoacylation ribozyme variant] | 0.597 | 0.61 | 0.624 | 0.852 | 0.526 | 0.824
31 | CUACUUCCAACAAGCGGUCUG [Fam1A.1 aminoacylation ribozyme variant] | 0.744 | 1.21 | 1.04 | 0.95 | 0.79 | 0.678
32 | CUACUUCCAACAAUCGGUAUG [Fam1A.1 aminoacylation ribozyme variant] | 0.634 | 0.654 | 0.611 | 0.782 | 0.663 | 0.533
33 | CUACUUCCAACAAUCGGUCGG [Fam1A.1 aminoacylation ribozyme variant] | 0.78 | 1.04 | 1.01 | 1.07 | 1.03 | 1.28
34 | CUACUUCCAACAAUCGGUCUA [Fam1A.1 aminoacylation ribozyme variant] | 0.924 | 0.839 | 0.632 | 0.892 | 0.701 | 0.598
35 | CUACUUCCAACAAUCGGUUUG [Fam1A.1 aminoacylation ribozyme variant] | 0.87 | 0.747 | 0.713 | 0.76 | 0.645 | 0.678
36 | CUACUUCCAACAAUCUGUCUG [Fam1A.1 aminoacylation ribozyme variant] | 0.746 | 0.776 | 0.488 | 0.757 | 0.59 | 0.438
37 | CUACUUCCAACUAUCGGUCUG [Fam1A.1 aminoacylation ribozyme variant] | 1.08 | 0.81 | 0.833 | 0.92 | 0.942 | 0.744
38 | CUACUUCCAAGAAUCGGUCUG [Fam1A.1 aminoacylation ribozyme variant] | 0.97 | 0.838 | 0.934 | 0.776 | 0.762 | 1.04
39 | CUACUUCGAACAAUCGGUCUC [Fam1A.1 aminoacylation ribozyme variant] | 0.828 | 0.781 | 0.66 | 0.683 | 0.648 | 0.507
40 | CUACUUCGAACAAUCGGUCUG [Fam1A.1 aminoacylation ribozyme variant] | 0.684 | 0.623 | 0.618 | 0.684 | 0.614 | 0.566
41 | CUACUUCGAACAAUCGGUUUG [Fam1A.1 aminoacylation ribozyme variant] | 0.591 | 0.649 | 0.581 | 0.717 | 0.526 | 0.404
42 | CUACUUCGAUCAAUCGGUCUG [Fam1A.1 aminoacylation ribozyme variant] | 0.778 | 0.591 | 0.528 | 0.584 | 0.585 | 0.434
43 | CUACUUCUAACAAUCAGUCUG [Fam1A.1 aminoacylation ribozyme variant] | 0.82 | 0.663 | 0.524 | 0.689 | 0.603 | 0.502
44 | CUACUUCUAACUAUCGGUCUG [Fam1A.1 aminoacylation ribozyme variant] | 0.796 | 0.734 | 0.766 | 0.841 | 0.628 | 0.65
45 | CUACUUCUUACAAUCGGUCUG [Fam1A.1 aminoacylation ribozyme variant] | 0.695 | 0.767 | 0.812 | 0.707 | 0.624 | 0.524
46 | CUACUUGAAAAAAUCGGUCUG [Fam1A.1 aminoacylation ribozyme variant] | 0.472 | 0.862 | 0.781 | 0.822 | 0.801 | 0.84
47 | CUACUUGAAACAAUAGGUCUG [Fam1A.1 aminoacylation ribozyme variant] | 0.837 | 1.06 | 1.09 | 1.05 | 1.13 | 0.841
48 | CUACUUGAAACAAUCGGUAUG [Fam1A.1 aminoacylation ribozyme variant] | 0.5 | 0.654 | 0.67 | 0.699 | 0.838 | 0.504
49 | CUACUUGAAACAAUCGGUCGG [Fam1A.1 aminoacylation ribozyme variant] | 0.733 | 0.997 | 0.994 | 0.949 | 1.13 | 0.589
50 | CUACUUGAAAUAAUCGGUCUG [Fam1A.1 aminoacylation ribozyme variant] | 0.723 | 0.785 | 0.801 | 0.784 | 0.68 | 0.619
51 | CUACUUGAACCAAUCGGUCUG [Fam1A.1 aminoacylation ribozyme variant] | 0.74 | 0.821 | 0.841 | 0.879 | 0.941 | 0.582
